{
  "source": "patent US20250177548A1",
  "about": "“FUSOGENIC PEPTIDE COMPOSITIONS AND METHODS OF CARGO DELIVERY” (CLEMSON UNIVERSITY, priority 2022, published 2025)",
  "key": {"[1]": {"assay": "dynamic light scattering, size and zeta potential of peptide/siRNA complexes", "format": "physicochemical", "conditions": "LHRH-DIV3W peptide/siRNA complexes", "experimental": "Dynamic Light Scattering and Transmission Electron Microscopy. DIV3 (X)-siNT complexes were prepared at 2 mg/mL in RNase-free water. Hydrodynamic size and surface charge of the peptide/siRNA complexes were determined using a Nano ZS Zetasizer (Malvern Pananalytical, Malvern, UK). All data were recorded using Malvern's Zetasizer software.\nTo determine nanoparticle size and zeta potential, peptides resuspended in RNase-free water (10 μM) were thawed and kept on ice prior to complexation with 10 μM of siNT in RNase-free water and incubated for 20 minutes at room temperature to form DIV3W-siNT and LHRH-DIV3W-siNT complexes. Peptide complexes were prepared at 2 mg/mL in RNase-free water. Hydrodynamic size and surface charge analysis was conducted using a Malvern Nano ZS Zetasizer (Malvern Panalytical, Malvern, UK). All data was analyzed using Malvern's Zetasizer software."}, "[2]": {"assay": "gel assay of siRNA protection from degradation in 50% serum", "format": "in vitro ADME", "conditions": "50% FBS, 1 hour, several N:P ratios", "experimental": "Gel Shift Assays. DIVA3, DIV3H, and DIV3W (all three denoted as DIV3 (X)) peptides suspended in RNase-free water (10 μM), were thawed, and kept on ice prior to complexation with 10 μM of negative control siGENOME non-targeting siRNA #5 (siNT, GE Healthcare Dharmacon, Lafayette, CO) in RNase-free water and incubated for 20 minutes at room temperature to allow the formation of DIV3 (X)-siNT complexes. Various molar ratios of peptides were complexed with siNT at increasing N:P molar ratios to determine the minimum molar ratio necessary to completely complex free siRNAs using an electrophoretic mobility shift assay. To determine the ability of each peptide variant to protect siRNAs from degradation, DIV3 (X)-siNT complexes or siNT alone was left untreated or incubated with either 50% v/v FBS or 5 μg/mL RNase A at 37° C. for one hour. Next, complexes were dissociated using 6% sodium dodecyl sulfate (SDS). Samples were added to a 2% agarose gel and run at 100 V. Gels were stained with ethidium bromide, destained with Milli-Q water, and imaged using a ChemiDoc XRS imager (Bio-Rad, Hercules, CA).\nCharacterization of Nanoparticle Size and Stability. To determine the minimum molar ratio necessary to completely complex free siRNAs, increasing N:P molar ratios of LHRH, DIV3W, and LHRH-DIV3W peptide were complexed with siRNAs and electrophoresed using a electrophoretic mobility shift assay. Molar ratios, shown as N:P, are representations of the molar amine peptide content in relation to 1 mole of phosphate group siRNA content. To determine the ability of the peptides to protect siRNAs from serum- or RNase-mediated degradation, LHRH and LHRH-DIV3W complexes were formed in RNase-free water with siNT at increasing N:P molar ratios and incubated at 37° C., 5% CO2, 50% v/v FBS, 5 μg/mL RNase A, or 50% v/v RNase free water for 1 hour. Peptide/siRNA complexes were dissociated using 6% sodium dodecyl sulfate (SDS) prior to electrophoresis in a 2% agarose gel run at 100 V. Gels were stained with ethidium bromide, washed with Milli-Q water, and imaged with a BioRad ChemiDoc XRS imager (BioRad, Hercules, CA).\nPeptides VA-LD and GF-LD, comprising the cleavable linker VA or GLFG, respectively, between the LHRH target sequence and the DIV3W peptide, and non targeting siRNA were electrostatically complexed at increasing N:P ratios then subjected to agarose gel electrophoresis to determine optimal siRNA binding for each peptide. […] Peptide-siRNA nanocomplexes at increasing N:P ratios for peptides for VA-LD (FIG. 30A) and GF-LD (FIG. 30C) were incubated in either Rnase A enzyme or in 50% fetal bovine serum (FBS) for 1 h, dissociated using SDS then subjected to gel electrophoresis to visualize siRNA bands. Gels showing increasing N:P ratios of peptide:siRNA for VA-LD (FIG. 30B) and GF-LD (FIG. 30D) from 20:1 to 80:1 N:P; white bands are indicative of intact siRNA"}},
  "note": "Non-standard residues stand in square brackets, D forms with d. No end group written: not given here. pG = not defined here",
  "data": [
    {"substance": "pGHWSY-(d) LLRPGGGGGWEADIVADIVWDIVADIVAGGG-(d) RRRRRRRRR ([pG]HWSY[dL]LRPGGGGGWEADIVADIVWDIVADIVAGGG[dR][dR][dR][dR][dR][dR][dR][dR][dR]; reading uncertain) [LHRH-DIV3W]", "values": [
      {"measurement": "nanoparticle size (DLS)", "setting": "[1]", "result": "154.2±15.9", "unit": "nm"},
      {"measurement": "polydispersity index", "setting": "[1]", "result": 0.18},
      {"measurement": "zeta potential (positive charge)", "setting": "[1]", "result": "33.37±2.00", "unit": "mV"},
      {"measurement": "intact siRNA after incubation in 50% serum", "setting": "[2]", "result": "fully protect siRNA cargo from degradation"},
      {"measurement": "cytotoxicity of peptide alone", "setting": "OVCAR3 cells", "result": "did not cause cytotoxic effects"},
      {"measurement": "viability", "setting": "OVCAR3 cells", "result": 109.66, "unit": "%+0.8%"}
    ]}
  ]
}
